Experimental data reported in patent US20250320281A1.

What was measured:
[1] = target: HIV-1 92TH021 Env (pseudovirus) (HIV-1); experiment: cell-based or functional assay
[2] = target: HIV-1 92UG005 Env (pseudovirus) (HIV-1); experiment: cell-based or functional assay
[3] = target: HIV-1 92UG024 Env (pseudovirus) (HIV-1); experiment: cell-based or functional assay
[4] = target: HIV-1 CMU02 Env (pseudovirus) (HIV-1); experiment: cell-based or functional assay
[5] = target: HIV-1 Env of isolate MGRM-C-001 (HIV-1); experiment: cell-based or functional assay
[6] = target: HIV-1 Env of isolate MGRM-C-002 (HIV-1); experiment: cell-based or functional assay
[7] = target: HIV-1 Env of isolate MGRM-C-004 (HIV-1); experiment: cell-based or functional assay
[8] = target: HIV-1 Env of isolate MGRM-C-005 (HIV-1); experiment: cell-based or functional assay
[9] = target: HIV-1 Env of isolate MGRM-C-006 (HIV-1); experiment: cell-based or functional assay
[10] = target: HIV-1 Env of isolate MGRM-C-007 (HIV-1); experiment: cell-based or functional assay
[11] = target: HIV-1 Env of isolate MGRM-C-008 (HIV-1); experiment: cell-based or functional assay
[12] = target: HIV-1 Env of isolate MGRM-C-009 (HIV-1); experiment: cell-based or functional assay
[13] = target: HIV-1 Env of isolate MGRM-C-010 (HIV-1); experiment: cell-based or functional assay
[14] = target: HIV-1 Env of isolate MGRM-C-012 (HIV-1); experiment: cell-based or functional assay
[15] = target: HIV-1 Env of isolate MGRM-C-013 (HIV-1); experiment: cell-based or functional assay
[16] = target: HIV-1 Env of isolate MGRM-C-014 (HIV-1); experiment: cell-based or functional assay
[17] = target: HIV-1 Env of isolate MGRM-C-015 (HIV-1); experiment: cell-based or functional assay
[18] = target: HIV-1 Env of isolate MGRM-C-017 (HIV-1); experiment: cell-based or functional assay
[19] = target: HIV-1 Env of isolate MGRM-C-019 (HIV-1); experiment: cell-based or functional assay
[20] = target: HIV-1 Env of isolate MGRM-C-020 (HIV-1); experiment: cell-based or functional assay
[21] = target: HIV-1 Env of isolate MGRM-C-022 (HIV-1); experiment: cell-based or functional assay
[22] = target: HIV-1 Env of isolate MGRM-C-023 (HIV-1); experiment: cell-based or functional assay
[23] = target: HIV-1 Env of isolate MGRM-C-024 (HIV-1); experiment: cell-based or functional assay
[24] = target: HIV-1 Env of isolate MGRM-C-025 (HIV-1); experiment: cell-based or functional assay
[25] = target: HIV-1 Env of pseudovirus isolate MGRM-G-001 (HIV-1); experiment: cell-based or functional assay
[26] = target: HIV-1 Env of pseudovirus isolate MGRM-G-004 (HIV-1); experiment: cell-based or functional assay
[27] = target: HIV-1 Env of pseudovirus isolate MGRM-G-006 (HIV-1); experiment: cell-based or functional assay
[28] = target: HIV-1 Env of pseudovirus isolate MGRM-G-009 (HIV-1); experiment: cell-based or functional assay
[29] = target: HIV-1 Env of pseudovirus isolate MGRM-G-011 (HIV-1); experiment: cell-based or functional assay
[30] = target: HIV-1 Env of pseudovirus isolate MGRM-G-013 (HIV-1); experiment: cell-based or functional assay
[31] = target: HIV-1 Env of pseudovirus isolate MGRM-G-014 (HIV-1); experiment: cell-based or functional assay
[32] = target: HIV-1 Env of pseudovirus isolate MGRM-G-015 (HIV-1); experiment: cell-based or functional assay
[33] = target: HIV-1 Env of pseudovirus isolate MGRM-G-016 (HIV-1); experiment: cell-based or functional assay
[34] = target: HIV-1 Env of pseudovirus isolate MGRM-G-017 (HIV-1); experiment: cell-based or functional assay
[35] = target: HIV-1 Env of pseudovirus isolate MGRM-G-019 (HIV-1); experiment: cell-based or functional assay
[36] = target: HIV-1 Env of pseudovirus isolate MGRM-G-027 (HIV-1); experiment: cell-based or functional assay
[37] = target: HIV-1 NL43 Env (pseudovirus) (HIV-1); experiment: cell-based or functional assay
[38] = target: envelope of aMLV pseudovirus (negative control); experiment: cell-based or functional assay
WT JR-FL gp120 (HIV-1) = experiment: ELISA, antigen-coated wells

For 4838_L06 (PGT-121) (antibody), the neutralization IC50 (pseudovirus) [1] was greater than 10 µg/mL, the neutralization IC50 (pseudovirus) [2] was greater than 10 µg/mL and the neutralization IC50 (pseudovirus) [3] was greater than 10 µg/mL. For the same substance, the neutralization IC50 (pseudovirus) [4] was greater than 10 µg/mL, the neutralization IC50 [5] was 17.5 µg/mL and the neutralization IC50 [6] was 0.019 µg/mL. The neutralization IC50 [7] was 0.011 µg/mL, the neutralization IC50 [8] was 0.015 µg/mL and the neutralization IC50 [9] was 0.017 µg/mL. The neutralization IC50 [10] was 0.196 µg/mL, the neutralization IC50 [11] was 0.012 µg/mL and the neutralization IC50 [12] was greater than 50 µg/mL. It also gave a neutralization IC50 [13] greater than 50 µg/mL, a neutralization IC50 [14] of 0.123 µg/mL and a neutralization IC50 [15] of 7.23 µg/mL. It also gave a neutralization IC50 [16] of 26.9 µg/mL, a neutralization IC50 [17] of 25.1 µg/mL and a neutralization IC50 [18] of 0.009 µg/mL. The neutralization IC50 [19] was greater than 50 µg/mL, the neutralization IC50 [20] was greater than 50 µg/mL and the neutralization IC50 [21] was 0.015 µg/mL. For the same substance, the neutralization IC50 [22] was 0.017 µg/mL, the neutralization IC50 [23] was 0.052 µg/mL and the neutralization IC50 [24] was 46.8 µg/mL. It also gave an IC50 (µg/mL), pseudovirus neutralization [25] of 0.004 µg/mL, an IC50 (µg/mL), pseudovirus neutralization [26] of 0.115 µg/mL and an IC50 (µg/mL), pseudovirus neutralization [27] greater than 50 µg/mL. The IC50 (µg/mL), pseudovirus neutralization [28] was 0.02 µg/mL, the IC50 (µg/mL), pseudovirus neutralization [29] was 3.17 µg/mL and the IC50 (µg/mL), pseudovirus neutralization [30] was 3.99 µg/mL. The IC50 (µg/mL), pseudovirus neutralization [31] was 0.009 µg/mL, the IC50 (µg/mL), pseudovirus neutralization [32] was greater than 50 µg/mL and the IC50 (µg/mL), pseudovirus neutralization [33] was greater than 50 µg/mL. For the same substance, the IC50 (µg/mL), pseudovirus neutralization [34] was 0.004 µg/mL, the IC50 (µg/mL), pseudovirus neutralization [35] was 0.011 µg/mL and the IC50 (µg/mL), pseudovirus neutralization [36] was 0.124 µg/mL. The neutralization IC50 (pseudovirus) [37] was greater than 10 µg/mL, the IC50 (µg/mL), pseudovirus neutralization [38] was greater than 50 µg/mL and the EC50 (WT JR-FL gp120 (HIV-1)) was 0.2 µg/mL.
Substance 5145_B14 (PGT-127) (antibody) has a neutralization IC50 [5] greater than 50 µg/mL, a neutralization IC50 [6] of 0.057 µg/mL and a neutralization IC50 [7] of 0.532 µg/mL. It also gave a neutralization IC50 [8] of 0.57 µg/mL, a neutralization IC50 [9] of 0.319 µg/mL and a neutralization IC50 [10] greater than 50 µg/mL. The neutralization IC50 [11] was greater than 50 µg/mL, the neutralization IC50 [12] was greater than 50 µg/mL and the neutralization IC50 [13] was greater than 50 µg/mL. The neutralization IC50 [14] was 1.07 µg/mL, the neutralization IC50 [15] was greater than 50 µg/mL and the neutralization IC50 [16] was greater than 50 µg/mL. For the same substance, the neutralization IC50 [17] was greater than 50 µg/mL, the neutralization IC50 [18] was 3.4 µg/mL and the neutralization IC50 [19] was 0.017 µg/mL. The neutralization IC50 [20] was greater than 50 µg/mL, the neutralization IC50 [21] was 0.41 µg/mL and the neutralization IC50 [22] was 1.08 µg/mL. For the same substance, the neutralization IC50 [23] was greater than 50 µg/mL, the neutralization IC50 [24] was greater than 50 µg/mL and the IC50 (µg/mL), pseudovirus neutralization [25] was 0.113 µg/mL. The IC50 (µg/mL), pseudovirus neutralization [26] was greater than 50 µg/mL, the IC50 (µg/mL), pseudovirus neutralization [27] was greater than 50 µg/mL and the IC50 (µg/mL), pseudovirus neutralization [28] was greater than 50 µg/mL. For the same substance, the IC50 (µg/mL), pseudovirus neutralization [29] was greater than 50 µg/mL, the IC50 (µg/mL), pseudovirus neutralization [30] was 7.7 µg/mL and the IC50 (µg/mL), pseudovirus neutralization [31] was 0.009 µg/mL. The IC50 (µg/mL), pseudovirus neutralization [32] was greater than 50 µg/mL, the IC50 (µg/mL), pseudovirus neutralization [33] was greater than 50 µg/mL and the IC50 (µg/mL), pseudovirus neutralization [34] was greater than 50 µg/mL. For the same substance, the IC50 (µg/mL), pseudovirus neutralization [35] was 0.429 µg/mL, the IC50 (µg/mL), pseudovirus neutralization [36] was greater than 50 µg/mL and the IC50 (µg/mL), pseudovirus neutralization [38] was greater than 50 µg/mL. It also gave an EC50 (WT JR-FL gp120 (HIV-1)) of 0.1 µg/mL.
